The text below walks through data of article PMC4148193, “Chromatin Insulator Factors Involved in Long-Range DNA Interactions and Their Role in the Folding of the Drosophila Genome” (PLoS Genetics, 2014).

Data set [1] addresses T1, BEAF32 (BEAF32B) (Drosophila, UniProt Q94513 1-282).
T1 sequence: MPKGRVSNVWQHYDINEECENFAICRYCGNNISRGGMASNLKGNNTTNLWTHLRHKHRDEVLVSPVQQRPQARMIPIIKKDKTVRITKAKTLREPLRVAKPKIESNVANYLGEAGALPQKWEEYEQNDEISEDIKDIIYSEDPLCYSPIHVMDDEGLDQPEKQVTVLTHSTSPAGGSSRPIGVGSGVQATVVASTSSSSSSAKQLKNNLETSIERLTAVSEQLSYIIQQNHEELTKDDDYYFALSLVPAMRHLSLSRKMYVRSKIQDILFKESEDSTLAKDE
The data set can be described thus: fluorescence anisotropy; Hill n=3±0.4; 20 uM ZnSO4; FA/FCS: 30 mM Tris/HCl pH 7.5, 100 mM NaCl, 20 uM ZnSO4, 5 mM mercaptoethanol, 0.01 mg/ml BSA, 0.004% Tween20, 2.5 nM DNA; EMSA: 150 mM NaCl, 30 mM Tris/HCl pH. Conditions: protein: recombinant; tags: N-term MBP; C-term 6xHis; blunt. (In general: In fluorescence polarisation assays a small probe gives low polarisation when free and higher when bound to something large.)

The target in data set [2] is T1, BEAF32 (BEAF32B). Briefly: competition; unlabeled DNAS vs 2.5 nM Cy3B-DNAS, 100 nM BEAF32; FA/FCS: 30 mM Tris/HCl pH 7.5, 100 mM NaCl, 20 uM ZnSO4, 5 mM mercaptoethanol, 0.01 mg/ml BSA, 0.004% Tween20, 2.5 nM DNA; EMSA: 150 mM NaCl, 30 mM Tris/HCl pH. Conditions: protein: recombinant; tags: N-term MBP; C-term 6xHis; blunt. For orientation: A gel shift assay detects complexes by their altered migration in electrophoresis.

Data set [3] deals with T2, BEAF32 (BEAF32B);Chromator-C (Drosophila;Drosophila, UniProt Q94513;Q86BS3 1-282;601-926, |).
T2 sequence 1: T1 sequence
T2 sequence 2: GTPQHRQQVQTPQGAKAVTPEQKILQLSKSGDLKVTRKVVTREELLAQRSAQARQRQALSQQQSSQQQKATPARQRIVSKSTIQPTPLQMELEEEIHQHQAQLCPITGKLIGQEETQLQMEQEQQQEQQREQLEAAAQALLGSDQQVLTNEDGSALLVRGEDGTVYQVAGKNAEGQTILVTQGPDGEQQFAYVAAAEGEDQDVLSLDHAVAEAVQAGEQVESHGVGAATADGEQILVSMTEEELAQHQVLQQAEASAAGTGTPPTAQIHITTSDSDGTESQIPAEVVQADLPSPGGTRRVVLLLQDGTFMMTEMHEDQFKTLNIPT
The data set can be described thus: FCS/PIE-FCCS; 800 nM BEAF32, 100 nM Chromator-C; diffusion time slightly decreased, BEAF32 stays bound, no bridging; FA/FCS: 30 mM Tris/HCl pH 7.5, 100 mM NaCl, 20 uM ZnSO4, 5 mM mercaptoethanol, 0.01 mg/ml BSA, 0.004% Tween20, 2.5 nM DNA; EMSA: 150 mM NaCl, 30 mM Tris/HCl pH. The settings on record: protein: recombinant;recombinant; tags: N-term MBP; C-term 6xHis;N-term 6xHis; blunt.

For data set [4], the target named is T3, CP190 (Drosophila, UniProt Q24478 1-1096).
T3 sequence: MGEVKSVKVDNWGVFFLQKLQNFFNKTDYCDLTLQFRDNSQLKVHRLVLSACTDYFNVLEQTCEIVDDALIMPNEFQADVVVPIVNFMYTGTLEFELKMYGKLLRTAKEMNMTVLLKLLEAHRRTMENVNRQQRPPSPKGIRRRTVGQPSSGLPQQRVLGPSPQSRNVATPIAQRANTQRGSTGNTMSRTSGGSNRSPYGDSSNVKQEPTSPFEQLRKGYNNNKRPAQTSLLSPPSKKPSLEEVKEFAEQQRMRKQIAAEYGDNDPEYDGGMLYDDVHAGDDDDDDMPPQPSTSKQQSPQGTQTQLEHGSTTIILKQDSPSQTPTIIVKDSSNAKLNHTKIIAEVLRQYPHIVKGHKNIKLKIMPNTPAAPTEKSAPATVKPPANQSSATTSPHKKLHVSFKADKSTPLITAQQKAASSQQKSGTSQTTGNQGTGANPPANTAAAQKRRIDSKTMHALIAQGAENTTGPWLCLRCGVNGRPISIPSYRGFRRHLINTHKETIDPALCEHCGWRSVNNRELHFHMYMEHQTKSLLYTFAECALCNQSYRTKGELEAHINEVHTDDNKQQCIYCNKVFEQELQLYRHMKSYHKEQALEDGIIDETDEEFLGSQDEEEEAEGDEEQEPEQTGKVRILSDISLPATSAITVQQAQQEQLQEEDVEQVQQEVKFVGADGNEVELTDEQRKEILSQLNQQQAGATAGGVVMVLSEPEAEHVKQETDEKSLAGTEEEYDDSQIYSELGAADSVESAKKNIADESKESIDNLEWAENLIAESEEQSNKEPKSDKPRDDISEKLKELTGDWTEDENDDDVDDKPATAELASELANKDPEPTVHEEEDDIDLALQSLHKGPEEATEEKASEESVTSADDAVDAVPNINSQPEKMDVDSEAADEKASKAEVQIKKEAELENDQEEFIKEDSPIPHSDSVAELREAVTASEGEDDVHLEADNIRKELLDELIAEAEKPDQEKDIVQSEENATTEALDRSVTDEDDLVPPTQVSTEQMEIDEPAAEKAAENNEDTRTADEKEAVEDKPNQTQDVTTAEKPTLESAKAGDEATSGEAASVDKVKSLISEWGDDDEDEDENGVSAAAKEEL
The data set can be described thus: competition; unlabeled DNAS vs 2.5 nM Cy3B-DNAS, 200 nM CP190; FA/FCS: 30 mM Tris/HCl pH 7.5, 100 mM NaCl, 20 uM ZnSO4, 5 mM mercaptoethanol, 0.01 mg/ml BSA, 0.004% Tween20, 2.5 nM DNA; EMSA: 150 mM NaCl, 30 mM Tris/HCl pH. Conditions: protein: recombinant; tags: N-term 6xHis; blunt.

B1: DNAS (dsDNA)
DNA 1: AGAAGTCAGCGCGATAGCATCGATATTTTCGTGACACGCTTGTCATCCGATAGGTAGT
DNA 2: ACTACCTATCGGATGACAAGCGTGTCACGAAAATATCGATGCTATCGCGCTGACTTCT
In general, Kd refers to the equilibrium constant for the complex coming apart. Broadly, the Ki is a dissociation constant, usually derived from enzyme kinetics or from competition with a known ligand. As to B1, the Kd in data set [1] worked out at 68 ± 5 nM. Besides, the Ki in data set [2] is 20 ± 4 nM; in data set [4], 17 ± 4 nM. Moreover, the binding result in data set [3] is recorded as “binds”.
